Assay results as given in publication PMC7926355, “Mutation of GGMP Repeat Segments of Plasmodium falciparum Hsp70-1 Compromises Chaperone Function and Hop Co-Chaperone Binding” (International Journal of Molecular Sciences, 2021).

Columns and labels:
Experiment in all cases: SPR
Conditions in all cases: both partners purified
[1] = target: T1, Plasmodium falciparum Hsp70-1 (PfHsp70-1), wild type (Plasmodium falciparum 3D7, UniProt Q8IB24 1-677)
T1 construct: PfHsp70-1, cytosolic Hsp70 of Plasmodium falciparum 3D7, NCBI XP_001349336.1; called the full length PfHsp70-1 protein; pQE30 vector with N-terminal (His)6-tag; also called WT; wild type PfHsp70-1

PfHsp70-1_(G632) = PfHsp70-1_(G632) (Plasmodium falciparum 3D7, UniProt Q8IB24 1-677, 632GGMPGGMP639 to 632AALAAALA639)
PfHsp70-1_(G648) = PfHsp70-1_(G648) (Plasmodium falciparum 3D7, UniProt Q8IB24 1-677, 648[…]657 to 648[…]657)
PfHsp70-1_(G632-664) = PfHsp70-1_(G632-664) (Plasmodium falciparum 3D7, UniProt Q8IB24 1-677, 632[…]664 to 632[…]664)
PfHsp70-1∆G = PfHsp70-1∆G (Plasmodium falciparum 3D7, UniProt Q8IB24 1-677, deletion of residues 632-664)

Measured: binding result

B1: Plasmodium falciparum Hsp70-Hsp90 organising protein (PfHop) (natural protein, UniProt Q8ILC1 1-564, looked up)
chain: MVNKEEAQRLKELGNKCFQEGKYEEAVKYFSDAITNDPLDHVLYSNLSGAFASLGRFYEALESANKCISIKKDWPKGYIRKGCAEHGLRQLSNAEKTYLEGLKIDPNNKSLQDALSKVRNENMLENAQLIAHLNNIIENDPQLKSYKEENSNYPHELLNTIKSINSNPMNIRIILSTCHPKISEGVEKFFGFKFTGEGNDAEERQRQQREEEERRKKKEEEERKKKEEEEMKKQNRTPEQIQGDEHKLKGNEFYKQKKFDEALKEYEEAIQINPNDIMYHYNKAAVHIEMKNYDKAVETCLYAIENRYNFKAEFIQVAKLYNRLAISYINMKKYDLAIEAYRKSLVEDNNRATRNALKELERRKEKEEKEAYIDPDKAEEHKNKGNEYFKNNDFPNAKKEYDEAIRRNPNDAKLYSNRAAALTKLIEYPSALEDVMKAIELDPTFVKAYSRKGNLHFFMKDYYKALQAYNKGLELDPNNKECLEGYQRCAFKIDEMSKSEKVDEEQFKKSMADPEIQQIISDPQFQIILQKLNENPNSISEYIKDPKIFNGLQKLIAAGILKVR
notes: PfHop, Hsp70-Hsp90 organising protein of Plasmodium falciparum
binds: [1] | PfHsp70-1_(G632) | PfHsp70-1_(G648) | PfHsp70-1_(G632-664) | PfHsp70-1∆G
